Measured values from the supplement of paper PMC12042874.
± gives the uncertainty stated by the source.

Test: amyloid nucleation score (Sup35N fusion, yeast selection) (log enrichment); library NNK1; higher = more nucleation; inactive = no reads after selection
Summary of the method: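 Psi-negative yeast expressed Sup35N fused to peptides of 20 random codons. They were induced 24 hours with 100 μM copper sulfate, grown 7 days at 30°C without adenine and uracil, and their plasmid inserts from input and output were Illumina-sequenced. The nucleation score is the DiMSum log enrichment of output over input reads, centred on the mode score of non-aggregating sequences. Sequences with under 100 input reads were excluded.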

| Substance | amyloid nucleation score |
| --- | --- |
| AAAFYWLN | -1.2 ± 1.3 |
| AAGRMIRIMVTGVRLDKDKD | -0.257 ± 1.7 |
| AAKRM | 1.11 ± 0.52 |
| AALSC | 0.844 ± 0.46 |
| AANSPELVGFSGGPKGCSRG | -0.137 ± 0.71 |
| AARELKIVTRVMHFDADREA | 0.103 ± 0.43 |
| ACDVNSCVHCMSTVKFFPRP | 4.2 ± 0.11 |
| ACETWVVAIDMVSRSPCRCC | 0.113 ± 0.97 |
| ACHRTWKWVLRLRLLMRNNL | -0.712 ± 0.8 |
| ACLATNCVSFANFASCCWGW | 7.154 ± 0.059 |
| ACMRCFGNICSLWSVKGN | 7.417 ± 0.052 |
| ACYRATNMSCRRGHKLAGGF | inactive |
| ADEVMKRRQLLINIVEYFMK | 0.2 ± 0.38 |
| ADKTGGPVTNITFLAWPWWG | 3.95 ± 0.13 |
| ADSHYSDVGGYWMNSSLCK | 1.31 ± 0.8 |
| ADTCPFCDHWTQSSNRWQEL | 0.692 ± 0.41 |
| ADVEVC | -0.005 ± 0.56 |
| AERVCTFIL | -1.25 ± 1.1 |
| AESWCAGSKIIHSIGWSKDR | 0.589 ± 0.54 |
| AFGMSLGG | 0.225 ± 0.65 |
| AFRRNSPVSWSRR | 0.37 ± 0.35 |
| AFSSVEFRLDVNVFPEWVVL | 3.9 ± 0.12 |

| Substance | amyloid nucleation score |
| --- | --- |
| AGAVLLNVMLCARLQRSEYY | 2.17 ± 0.14 |
| AGKHLGNNIRYILVYGESFR | -1.09 ± 0.85 |
| AGMDVDSLYNRYGYGLEVG | -0.512 ± 0.81 |
| AGMTFRFLHEVSSSQSN | 3.06 ± 0.13 |
| AGRSWSCMLVTVWSRTRVPL | 0.351 ± 0.6 |
| AGRTILKIILQVLALLAPYK | -0.309 ± 1.4 |
| AGSLWFIWGLLSALN | -0.893 ± 0.92 |
| AGVIDT | 0.171 ± 0.79 |
| AGYVWAKSSKDVKFYVLDM | 2.85 ± 0.17 |
| AHFIFCKTFTLCLLLFCKLT | 0.057 ± 0.83 |
| AHGMYAEGVTWSALVSSRCE | 2.56 ± 0.11 |
| AHSCSLV | 0.61 ± 0.7 |
| AHSGMRLL | 0.569 ± 0.75 |
| AICKRRQLRVLSQALRLSLL | 1.14 ± 0.4 |
| AIDIYGYLRFPCWLRVLFT | -1.06 ± 0.45 |
| AIFVCNH | 0.229 ± 0.5 |
| AILFLFFN | 2.66 ± 0.14 |
| AILRSAM | 0.284 ± 0.46 |
| AILVHCSVLTVA | 0.584 ± 0.66 |
| AIRMLSISCNFMVVIL | 0.837 ± 0.93 |
| AISVWMSMNGPITPDR | 0.907 ± 0.59 |
| AKVPVKGQRLRTGLPKSTHT | -1.88 ± 1.4 |

| Substance | amyloid nucleation score |
| --- | --- |
| ALCLKGSMNVEFMIRTSGFN | 0.705 ± 0.51 |
| ALLGFRSCMQASFFFFRWFI | -0.801 ± 0.89 |
| ALPREWKCMSLLFENGSGNS | inactive |
| ALRFFWDPFIDG | 0.388 ± 0.81 |
| ALRGMWNKVRSGGWCYRCTW | -0.05 ± 1.4 |
| ALRKVYCSFIHNIWACSWAI | inactive |
| AMCLV | -0.373 ± 0.88 |
| AMHNSSDGCRFDTYSVCVYW | 2.68 ± 0.21 |
| AMKVFYDMWKTACY | -0.507 ± 0.7 |
| AMLKDRNMLADYFHGVILGA | inactive |
| AMMPLVLNQVVFDVAALTNR | 7.68 ± 0.054 |
| AMNGVLVIGGV | -0.668 ± 1.7 |
| AMRLMDILCLIVCPHEYMWP | 1.54 ± 0.17 |
| AMVGLMMELAHRKLNR | 0.523 ± 0.45 |
| AMYVDQVLHQPRPLMSPRMQ | 0.515 ± 0.51 |
| ANGMEGL | 1.13 ± 0.81 |
| ANIHYL | 2.63 ± 0.12 |
| ANMHRVKAYCHIFGLSHETE | -0.775 ± 0.73 |
| ANSVRWTCMLVIIFQYRPTS | 2.5 ± 0.15 |
| APFHEGNIFRAVTFKTYPSR | -0.422 ± 0.72 |
| AQSSVKRWGGLCRNVMKDGW | 0.276 ± 0.32 |
| AQWVLMWYVRHVR | 1.49 ± 0.18 |

| Substance | amyloid nucleation score |
| --- | --- |
| ARCCWRG | -0.849 ± 1.1 |
| ARFCRGGRIVSLMRVLTQTR | -0.931 ± 1.3 |
| ARHSYN | inactive |
| ARLENVTHFRFLQTNLGYIE | 0.082 ± 0.67 |
| ARMFELRPLNRTHYSRAKRT | 0.124 ± 0.5 |
| ARMVVCHPAGFGGAWPSRWC | -0.105 ± 0.93 |
| ARTDWFLNSRSSDYAIGFPY | -0.157 ± 0.79 |
| ARTGPTSASVGGLQPVCPGD | -0.019 ± 0.55 |
| ARWCEGRYSFILNKQQKLAK | 0.662 ± 0.49 |
| ARYPRGDGVGDMSSRLIVVY | 1.26 ± 0.2 |
| ASAGPRWIWFGLGLQRCDAY | -0.141 ± 0.87 |
| ASFEKFNNVTLGCSTDSE | 0.666 ± 0.48 |
| ASFLRNVFWVIREYTLCEYV | 0.647 ± 0.19 |
| ASGFESCDTEVVGFRGVCYA | 1.42 ± 0.51 |
| ASNYGQWSCHPGRSLFVQFF | 4.56 ± 0.11 |
| ASQRSQNCCIVESIDEVLFS | 0.85 ± 0.41 |
| ASSGPAIYFNGRQRTFYYSD | 1.05 ± 0.29 |
| ASSGSVGVLNLATHTTVKWQ | 4.04 ± 0.14 |
| ASVVQVTGRGSVGMVFPCCS | -0.558 ± 0.56 |
